Measurements published in patent US20250090876A1 (MEDICAL COLLEGE OF WISCONSIN, published 2025).

What was measured:
purified CRR9 ectodomain = biological target: T1, purified CRR9 ectodomain (human, UniProt Q5R7B1 32-284 (Pongo abelii entry), limits assumed); test: ELISA with purified CRR9 ectodomain
T1 construct: also called CLPTM1L ectodomain
T1 sequence: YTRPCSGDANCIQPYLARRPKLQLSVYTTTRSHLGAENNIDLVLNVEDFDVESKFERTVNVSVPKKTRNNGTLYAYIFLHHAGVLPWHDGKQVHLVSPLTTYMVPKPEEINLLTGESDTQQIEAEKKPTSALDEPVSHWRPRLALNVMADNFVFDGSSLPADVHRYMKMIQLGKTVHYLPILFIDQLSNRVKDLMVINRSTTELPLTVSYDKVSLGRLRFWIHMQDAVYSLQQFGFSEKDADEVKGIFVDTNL

mouse CLPTM1L protein = biological target: T2, mouse CLPTM1L protein (mouse, UniProt Q8BXA5 1-539); test: flow cytometry on live ID8-luc mouse ovarian tumor cells (102-5 primary by the legend of FIG. 31A)
T2 construct: whole, on cells; also called the mouse protein
T2 sequence (looked up): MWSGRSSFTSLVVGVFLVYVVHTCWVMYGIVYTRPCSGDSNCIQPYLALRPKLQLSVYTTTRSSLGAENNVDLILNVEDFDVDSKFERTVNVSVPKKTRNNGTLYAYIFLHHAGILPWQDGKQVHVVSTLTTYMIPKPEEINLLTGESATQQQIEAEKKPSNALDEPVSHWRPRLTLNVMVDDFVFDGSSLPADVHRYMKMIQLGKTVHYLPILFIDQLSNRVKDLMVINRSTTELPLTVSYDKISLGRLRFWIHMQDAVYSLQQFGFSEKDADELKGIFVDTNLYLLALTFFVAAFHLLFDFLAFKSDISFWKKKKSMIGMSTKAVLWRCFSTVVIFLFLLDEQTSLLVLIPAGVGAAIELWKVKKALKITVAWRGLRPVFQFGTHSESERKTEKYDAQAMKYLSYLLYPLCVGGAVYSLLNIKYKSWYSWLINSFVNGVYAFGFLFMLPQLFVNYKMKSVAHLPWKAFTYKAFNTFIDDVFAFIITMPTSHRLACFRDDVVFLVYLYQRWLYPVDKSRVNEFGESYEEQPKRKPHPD
Description: (E) Final relative mean volumes of SL3 and SL3cis xenograft tumors 24 days post-inoculation. […] (F) Mean volumes of SL3 and SL3cis xenograft tumors relative to group mean volume after sorting from days 0 to 24 post-inoculation. *p<0.05, **p<0.005, ***p<0.0005. Error bars represent standard error of the mean.
Flow cytometry was conducted per AbCam protocol for indirect flow cytometry. Tumor cells were harvested by trypsinization and suspended in cold PBS, 10% FBS, 0.05% NaN₃. 100 μL of cell suspension was added to 12×75 mm polystyrene tubes. 10 μg/mL of primary antibody diluted in PBS 3% BSA was added and tubes were incubated at 4° C. in the dark for 45 minutes. After washing 3 times in cold PBS, cells were resuspended in rabbit anti-Human Fc (H&L)-Alexafluor 488 (Abcam) in PBS 3% BSA and incubated at 4 C in the dark for 30 minutes. After washing 3 times in cold PBS, cells were suspended in 500 μL cold PBS, 3% BSA, 0.05% NaN₃ and analyzed on an Accuri C6 flow cytometer. Cells were gated for live cells based on scatter and fluorescence was plotted on a histogram using Flowing Software 2 (Turku Bioimaging).

[1] = biological target: T3, human CLPTM1L/CRR9 protein (human, UniProt Q96KA5 1-538); test: on-cell detection of fluorescently labeled 102-5 on live Panc1 tumor cells, with or without competitors (excess 10-2 mouse ascites or excess purified CRR9 ectodomain)
T3 construct: also called Cisplatin Resistance Related Protein-9; Cleft-Lip and Palate Transmembrane Protein-Like Protein 1
T3 sequence: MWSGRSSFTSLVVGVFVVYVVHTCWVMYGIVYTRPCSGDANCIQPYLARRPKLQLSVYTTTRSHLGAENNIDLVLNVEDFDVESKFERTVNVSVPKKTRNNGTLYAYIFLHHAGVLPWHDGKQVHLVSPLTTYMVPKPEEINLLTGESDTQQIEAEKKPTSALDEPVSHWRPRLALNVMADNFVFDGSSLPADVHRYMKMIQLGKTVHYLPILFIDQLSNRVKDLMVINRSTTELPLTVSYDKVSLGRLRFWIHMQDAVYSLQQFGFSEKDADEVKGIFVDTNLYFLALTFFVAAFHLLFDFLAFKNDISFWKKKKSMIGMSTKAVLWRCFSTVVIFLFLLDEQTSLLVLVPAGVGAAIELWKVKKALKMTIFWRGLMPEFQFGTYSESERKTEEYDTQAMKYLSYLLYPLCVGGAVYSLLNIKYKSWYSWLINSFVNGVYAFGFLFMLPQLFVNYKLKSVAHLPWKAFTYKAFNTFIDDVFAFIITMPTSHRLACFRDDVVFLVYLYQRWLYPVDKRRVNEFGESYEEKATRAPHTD

B1: 102-5 full-length human IgG1 anti-CLPTM1L (antibody, V domains shown)
VH: EVQLLESGGGLVQPGGSLRLSCAASGFSFSSYEMNWVRQAPGKGPEWISYISSGGGTIYYADSVRGRFTISRDNSNNTLYLQMNSLRPDDTAIYYCARDRGRKWLQLLFDSWGQGTLVTVSS
VL: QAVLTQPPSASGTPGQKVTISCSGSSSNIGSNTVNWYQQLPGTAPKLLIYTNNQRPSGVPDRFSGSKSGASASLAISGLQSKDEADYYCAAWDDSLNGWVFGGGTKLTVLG
notes: also called ESS102-5
- Kd (purified CRR9 ectodomain): 1 nM
- binding result (mouse CLPTM1L protein): binds
- binding result [1]: binds
